According to publication PMC6335408 (Nature Communications, 2019):

How the values were obtained:
[1] = target: T1, Ubl45^ΔC (tailless Ubl45) (UniProt Q93009 890-1082); test: SPR; GST-USP7CD captured by anti-GST antibody on CM5 chip, Ubl45 or Ubl45ΔC flowed over; Biacore T200, 25 °C; 20 mM HEPES pH 7.5, 100 mM NaCl, 1 mM DTT, 1 mM EDTA, 0.05% Tween-20, 1 mg/mL BSA, 1 mg/mL dextran; equilibrium fit 1:1, extrapolated; details: both partners purified
T1 construct: USP7 Ubl45 without the C-terminal tail: stop codon introduced at residue 1083; start 890 as told for Ubl45; also called tailless construct; source: E. coli BL21, purified (Glutathione Sepharose, 3C cleavage, anion exchange, gel filtration)

[2] = target: T2, USP7 Ubl45 (last two Ubl domains with the activating C-terminal tail) (UniProt Q93009 890-1102); test: as above; details: both partners purified
T2 construct: USP7 Ubl domains 4 and 5 with the C-terminal tail, residues 890-1102 (25 kDa); source: E. coli BL21, purified (Glutathione Sepharose, 3C cleavage, anion exchange, gel filtration); 15N-labelled in M9 minimal medium for NMR
T2 sequence (Q93009 890-1102): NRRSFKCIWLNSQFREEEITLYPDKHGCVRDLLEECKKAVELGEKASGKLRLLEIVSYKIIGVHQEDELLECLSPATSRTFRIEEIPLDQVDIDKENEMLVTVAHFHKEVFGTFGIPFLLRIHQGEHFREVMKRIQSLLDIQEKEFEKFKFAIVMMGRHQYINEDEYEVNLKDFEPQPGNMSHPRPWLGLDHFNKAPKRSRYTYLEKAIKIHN

T1 sequence (Q93009 890-1082, stated change not applied): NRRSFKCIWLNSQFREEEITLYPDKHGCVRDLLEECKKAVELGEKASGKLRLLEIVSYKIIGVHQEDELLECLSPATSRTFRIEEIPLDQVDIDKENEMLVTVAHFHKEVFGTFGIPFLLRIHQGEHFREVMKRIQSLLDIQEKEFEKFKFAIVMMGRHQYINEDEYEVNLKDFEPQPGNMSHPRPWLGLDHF

Kd [1]: 420 µM
Kd [2]: ~280 µM
B1: GST-USP7CD (domain or fragment)
chain: KKHTGYVGLKNQGATCYMNSLLQTLFFTNQLRKAVYMMPTEGDDSSKSVPLALQRVFYELQHSDKPVGTKKLTKSFGWETLDSFMQHDVQELCRVLLDNVENKMKGTCVEGTIPKLFRGKMVSYIQCKEVDYRSDRREDYYDIQLSIKGKKNIFESFVDYVAVEQLDGDNKYDAGEHGLQEAEKGVKFLTLPPVLHLQLMRFMYDPQTDQNIKINDRFEFPEQLPLDEFLQKTDPKDPANYILHAVLVHSGDNHGGHYVVYLNPKGDGKWCKFDDDVVSRCTKEEAIEHNYGGHDDDLSVRHCTNAYMLVYIRESKLSEVLQAVTDHDIPQQLVERLQEEKRIEAQKRKERQE
modifications: GST tag (used for chip immobilisation) left out; limits 208-560 are the usual USP7 CD construct limits, not printed in the text (consistent with the stated 42 kDa)
